Measured values as given in patent publication US20170306005A1 (NASCIENT, published 2017).
Numbering of substitutions follows the chain as printed.

Legend:
[1] = biological target: T1, mouse tenascin-C rCd4-His-FBG (rat; mouse, UniProt P05540 207-392, limits assumed); assay: SPR, captured purified IgG4, 37 C
T1 construct: domain: domains 3 and 4; C-terminal FBG fusion; biotinylated in the ELISA screen; also called Mu TNC; mouse TNC rCd4-His-FBG; not shown: 6His tag
T1 sequence (chain (part 1 of 2)): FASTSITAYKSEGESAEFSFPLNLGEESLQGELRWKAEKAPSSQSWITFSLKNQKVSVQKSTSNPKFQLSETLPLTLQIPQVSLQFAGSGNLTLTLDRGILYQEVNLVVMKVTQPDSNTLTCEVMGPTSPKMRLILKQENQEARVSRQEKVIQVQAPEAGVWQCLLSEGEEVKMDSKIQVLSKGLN
T1 sequence (chain (part 2 of 2)): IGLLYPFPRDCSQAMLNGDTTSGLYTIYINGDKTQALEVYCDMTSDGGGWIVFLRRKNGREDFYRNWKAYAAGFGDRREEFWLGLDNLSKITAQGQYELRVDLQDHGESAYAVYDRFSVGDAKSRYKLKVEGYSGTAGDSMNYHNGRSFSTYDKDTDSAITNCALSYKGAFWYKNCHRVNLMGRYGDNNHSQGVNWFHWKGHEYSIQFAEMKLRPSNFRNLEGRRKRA

[2] = biological target: T2, dog tenascin-C rCD4-His-FBG (rat; dog, UniProt P05540 207-392, limits assumed); assay: SPR, captured purified IgG4, 37 C
T2 construct: domain: domains 3 and 4; C-terminal FBG fusion; also called Dog TNC; not shown: 6His tag
T2 sequence (chain (part 1 of 2)): T1 sequence (chain (part 1 of 2))
T2 sequence (chain (part 2 of 2)): T1 sequence (chain (part 2 of 2)) with I29L, T34A, S89H, Q104R, E108K, S109T, S124T, N142A, Y152F

[3] = biological target: T3, rat tenascin-C rCd4-His-FBG (rat, UniProt P05540 207-392, limits assumed); assay: SPR, captured purified IgG4, 37 C
T3 construct: domain: domains 3 and 4; C-terminal FBG fusion; also called Rat TNC; rat TNC rCD4-His-FBG; not shown: 6His tag
T3 sequence (chain (part 1 of 2)): T1 sequence (chain (part 1 of 2))
T3 sequence (chain (part 2 of 2)): T1 sequence (chain (part 2 of 2)) with A72T

[4] = biological target: T4, human tenascin-C rCd4-His-FBG (rat; human, UniProt P05540 207-392, limits assumed); assay: SPR, captured purified IgG4, 37 C
T4 construct: domain: domains 3 and 4; C-terminal FBG fusion; biotinylated in the ELISA and HTRF screens; also called Hu TNC; human TNC rCd4-His-FBG; not shown: 6His tag
T4 sequence (chain (part 1 of 2)): T1 sequence (chain (part 1 of 2))
T4 sequence (chain (part 2 of 2)): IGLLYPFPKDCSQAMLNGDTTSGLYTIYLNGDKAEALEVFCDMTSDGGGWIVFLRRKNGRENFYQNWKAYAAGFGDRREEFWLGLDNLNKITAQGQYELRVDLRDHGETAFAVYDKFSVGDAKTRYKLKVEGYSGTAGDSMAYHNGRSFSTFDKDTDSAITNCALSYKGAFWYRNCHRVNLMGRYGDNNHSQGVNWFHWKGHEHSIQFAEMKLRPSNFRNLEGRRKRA

[5] = biological target: T1, mouse tenascin-C rCd4-His-FBG; assay: SPR off-rate screen, captured IgG4 supernatant, 25 C
Summary of the method: (§1)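 SPR at 25 °C: IgG4 (S241P) from culture supernatant, diluted 1:2 in 2×PBS-T, captured on anti-human Fc surface; antigen injected at a fixed 15 nM (human and mouse TNC rCd4-His-FBG) or 100 nM (human TNR rCd4-His-FBG), 30 μl/min. Association 1 min, dissociation 5 min; off-rates from reference-subtracted 1:1 fits.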

[6] = biological target: T4, human tenascin-C rCd4-His-FBG; assay: as above
Summary of the method: as §1

B1: 165_13_C3 human IgG4 (antibody, V domains shown)
VH: QVQLVESGGGLVQPGRSLRLSCAASGFTFDDYAMHWVRQAPGKGLEWVSGISGSGGSTYYADSVKGRFTISRDNAKNSLYLQMNSLRAEDTALYYCAKSYQSDEDAFDIWGQGTMVTVSS
VL: DIQMTQSPASLPTPVGDRVTITCRASQYIQGFLNWYQQKPGKAPKLLIYDASNLETGVPSRFSGSGSGTDFTLTISSLQPEDFATYYCQQSYSTPQTFGQGTKVDIKR
notes: also called IgG4 C3; C3 IgG4 MAb
Kd [1]: 0.46 nM
koff [1]: 0.000445 s⁻¹
kon [1]: 972000 M⁻¹ s⁻¹
Kd [2]: 1.8 nM
koff [2]: 0.0108 s⁻¹
kon [2]: 5.97e+06 M⁻¹ s⁻¹
Kd [3]: 1.22 nM
koff [3]: 0.00473 s⁻¹
kon [3]: 3.89e+06 M⁻¹ s⁻¹
Kd [4]: 0.072 nM
koff [4]: 0.00083 s⁻¹
kon [4]: 1.16e+07 M⁻¹ s⁻¹
koff [5]: 3.3e-06 s⁻¹
koff [6]: < 1e-05 s⁻¹
